This passage reports peptide exchange yield results from patent US20190352359A1 (IMMATICS BIOTECHNOLOGIES, published 2019).

The first assay has as its target T1, HLA-A*24.
T1 construct: Monomers captured on streptavidin plates; also called peptide-receptive MHC molecules; MHC complexes
Kind of assay: UV peptide-exchange ELISA (anti-b2m); yield grade +++ = >50. The source says:
(§1) Candidate peptides for T cell based therapies according to the present invention were further tested for their MHC binding capacity (affinity). The individual peptide-MHC complexes were produced by UV-ligand exchange, where a UV-sensitive peptide is cleaved upon UV-irradiation, and exchanged with the peptide of interest as analyzed. Only peptide candidates that can effectively bind and stabilize the peptide-receptive MHC molecules prevent dissociation of the MHC complexes. To determine the yield of the exchange reaction, an ELISA was performed based on the detection of the light chain (p2m) of stabilized MHC complexes. The assay was performed as generally described in Rodenko et al. (Rodenko et al., 2006)
(§2) 96 well MAXISorp plates (NUNC) were coated over night with 2 ug/ml streptavidin in PBS at room temperature, washed 4× and blocked for 1 h at 37° C. in 2% BSA containing blocking buffer. Refolded HLA-A*02:01/MLA-001 monomers served as standards, covering the range of 15-500 ng/ml. Peptide-MHC monomers of the UV-exchange reaction were diluted 100-fold in blocking buffer. Samples were incubated for 1 h at 37° C., washed four times, incubated with 2 ug/ml HRP conjugated anti-β2m for 1h at 37° C., washed again and detected with TMB solution that is stopped with […]. Absorption was measured at 450 nm. Candidate peptides that show a high exchange yield (preferably higher than 50%, most preferred higher than 75%) are generally preferred for a generation and production of antibodies or fragments thereof, and/or T cell receptors or fragments thereof, as they show sufficient avidity to the MHC molecules and prevent dissociation of the MHC complexes.
A general note: In an ELISA, binding on a coated surface is turned into a signal by an enzyme label.
In turn, MSYSCGLPSL (also called MSYSCGLPSL) [KRT33A-001] showed a peptide exchange yield of 50 to 75%.

KALMSAFYTF (also called KALMSAFYTF) [MMP11-022] showed a peptide exchange yield of 50 to 75%.

Molecule QHMLPFWTDL (also called QHMLPFWTDL) [NLRP2-009] came in with a peptide exchange yield of 50 to 75%.

YSLLDPAQF (also called YSLLDPAQF) [SOX14-002] returned a peptide exchange yield of 50 to 75%.

In turn, IYIIMQSCW (also called IYIIMQSCW) [FLT3-011] yielded a peptide exchange yield of 50 to 75%.

IHGIKFHYF (also called IHGIKFHYF) [NMUR2-004] gave a peptide exchange yield of 50 to 75%.

As for MHPGVLAAFLF (also called MHPGVLAAFLF) [MMP13-005], the peptide exchange yield is 50 to 75%.

In the case of GYFLAQYLM (also called GYFLAQYLM) [TRPM8-008], the peptide exchange yield lay within 50 to 75%.

DIYVTGGHLF (also called DIYVTGGHLF) [KLHDC7B-005] displayed a peptide exchange yield of 50 to 75%.

NYFLDPVTI (also called NYFLDPVTI) [TRI-005] returned a peptide exchange yield of 50 to 75%.

Regarding QYAAAITNGL (also called QYAAAITNGL) [SALL3-002], the peptide exchange yield lay within 50 to 75%.

On to VCWNPFNNTF (also called VCWNPFNNTF) [RNF183-001], for which the peptide exchange yield was in the range of 50 to 75%.

As to IYFNHRCF (also called IYFNHRCF) [SFMBT1-001], the peptide exchange yield lay in the range of 50 to 75%.

For VYSSFVFNLF (also called VYSSFVFNLF) [NLRP4-007], the peptide exchange yield is 50 to 75%.

VYSSFVFNL (also called VYSSFVFNL) [NLRP4-006]: the peptide exchange yield lay in the range of 50 to 75%.

As to KYYIATMAL (also called KYYIATMAL) [CHRNA9-003], the peptide exchange yield lay in the range of 50 to 75%.

As for SYLKDPMIV (also called SYLKDPMIV) [DDX53-001], the peptide exchange yield was in the range of 50 to 75%.

Molecule LSCTATPLF (also called LSCTATPLF) [KHDC1L-001] returned a peptide exchange yield of 50 to 75%.

In turn, VLAPVSGQF (also called VLAPVSGQF) [FCRL5-009] came in with a peptide exchange yield of 50 to 75%.

MYNMVPFF (also called MYNMVPFF) [DCT-002] gave a peptide exchange yield of 50 to 75%.

As to YYIGIVEEY (also called YYIGIVEEY) [HEPHL-007], the peptide exchange yield lay in the range of 50 to 75%.

As for MMVTVVALF (also called MMVTVVALF) [QRFPR-003], the peptide exchange yield fell in the range of 50 to 75%.

With FIPVAWLIF (also called FIPVAWLIF) [MRGPRX4-001], the peptide exchange yield fell in the range of 50 to 75%.

In turn, RSMEHPGKLLF (also called RSMEHPGKLLF) [ESR1-010] registered a peptide exchange yield of 50 to 75%.

RYLIIKYPF (also called RYLIIKYPF) [SUCN-003]: the peptide exchange yield lay in the range of 50 to 75%.

KQMQEFFGL (also called KQMQEFFGL) [MMP1-010] returned a peptide exchange yield of 50 to 75%.

In turn, KTKRWLWDF (also called KTKRWLWDF) [COL11A1-004] returned a peptide exchange yield of 50 to 75%.

In turn, YIPMSVMLF (also called YIPMSVMLF) [HTR7-002] returned a peptide exchange yield of 50 to 75%.

On to LHLYCLNTF (also called LHLYCLNTF) [PGR-003], for which the peptide exchange yield fell in the range of 50 to 75%.

As to KYKQHFPEI (also called KYKQHFPEI) [MAGEB17-001], the peptide exchange yield is 50 to 75%.

EAYSYPPATI (also called EAYSYPPATI) [HMCN1-006] showed a peptide exchange yield of 50 to 75%.

In turn, RYKMLIPF (also called RYKMLIPF) [NLRP2-010] registered a peptide exchange yield of 50 to 75%.

The molecule LFDHGGTVFF (also called LFDHGGTVFF) [ANO7-003] showed a peptide exchange yield of 50 to 75%.

For the molecule FYPDEDDFYF (also called FYPDEDDFYF) [MYCN-002], the peptide exchange yield fell in the range of 50 to 75%.

In the case of EYSLPVLTF (also called EYSLPVLTF) [PTP-037], the peptide exchange yield was 50 to 75%.

For the molecule ISMSATEFLL (also called ISMSATEFLL) [CYP1A1-001], the peptide exchange yield lay within 50 to 75%.

In the case of MDQNQVVWTF (also called MDQNQVVWTF) [ROS-008], the peptide exchange yield was 50 to 75%.

The next assay addresses T1, HLA-A*24. The experiment in a line: UV peptide-exchange ELISA (anti-b2m); yield grade ++ = >20%.
Description: as §1, §2
In turn, ASAALTGFTF (also called ASAALTGFTF) [SLC45A3-003] registered a peptide exchange yield of 20 to 50%.

As to KYMSRVLFVY (also called KYMSRVLFVY) [CHRNA9-002], the peptide exchange yield lay within 20 to 50%.

On to EMFFSPQVF (also called EMFFSPQVF) [ACTL8-002], for which the peptide exchange yield was 20 to 50%.

TQMDVKLVF (also called TQMDVKLVF) [GEN-003]: the peptide exchange yield fell in the range of 20 to 50%.

SHIGVVLAF (also called SHIGVVLAF) [OR51E2-005] returned a peptide exchange yield of 20 to 50%.

Molecule THSGGTNLF (also called THSGGTNLF) [MMP12-019] had a peptide exchange yield of 20 to 50%.

As for RALLPSPLF (also called RALLPSPLF) [SPATA31D1-001], the peptide exchange yield is 20 to 50%.

The molecule AVLRHLETF (also called AVLRHLETF) [CDK6-006] returned a peptide exchange yield of 20 to 50%.

KTYLPTFETTI (also called KTYLPTFETTI) [ENP-002] returned a peptide exchange yield of 20 to 50%.

RALTETIMF (also called RALTETIMF) [ALP-011] showed a peptide exchange yield of 20 to 50%.

Molecule AQHSLTQLF (also called AQHSLTQLF) [GPC2-002] came in with a peptide exchange yield of 20 to 50%.

RAMCAMMSF (also called RAMCAMMSF) [TGM4-002] had a peptide exchange yield of 20 to 50%.

As for GYGLTRVQPF (also called GYGLTRVQPF) [ACTL8-003], the peptide exchange yield is 20 to 50%.

QFSHVPLNNF (also called QFSHVPLNNF) [ALX1-001]: the peptide exchange yield was in the range of 20 to 50%.

Consider VLASAHILQF (also called VLASAHILQF) [BTBD16-005], for which the peptide exchange yield lay in the range of 20 to 50%.

The molecule YGQSKPWTF (also called YGQSKPWTF) [PAX3-001] showed a peptide exchange yield of 20 to 50%.

TQLPAPLRI (also called TQLPAPLRI) [GPR45-001] yielded a peptide exchange yield of 20 to 50%.

Regarding THAGVRLYF (also called THAGVRLYF) [NUP155-012], the peptide exchange yield is 20 to 50%.

The molecule IWDALERTF (also called IWDALERTF) [ABCC11-005] yielded a peptide exchange yield of 20 to 50%.

As to WFFQGAQYW (also called WFFQGAQYW) [MMP11-024], the peptide exchange yield lay in the range of 20 to 50%.

With TDLVQFLLF (also called TDLVQFLLF) [MAGEA10-003], the peptide exchange yield lay within 20 to 50%.

Take FRSWAVQTF (also called FRSWAVQTF) [NOS2-002]: the peptide exchange yield lay within 20 to 50%.

KQPANFIVL (also called KQPANFIVL) [LOC1001246-001] showed a peptide exchange yield of 20 to 50%.
